{"source": "patent US8492329B2", "about": "“Bioactive peptides and methods of using same” (Compugen Ltd., priority 2007, dated 2013)", "format_in_all_cases": "cell-based", "key": {"[1]": {"molecular_target": "T1, LGR4 (Homo sapiens, UniProt Q9BXB1)", "T1 construct": "expressed in transfected cells; host or cells: CHO-K1 (transient)", "test": "ACEA RT-CES cell impedance, LGR4 transfected CHO-K1 cells", "conditions": "P74C13V 10 uM, H2 Relaxin 1 uM, FIG. 15", "text": "ACEA RT-CES screen is a noninvasive and label-free assay for GPCRs that can be used with both engineered and nonengineered cell lines. The assay is based on using cell-electrode impedance to measure minute changes in cellular morphology as a result of ligand-dependent GPCR activation and is described in Naichen Yu, et al., Anal. Chem., 78 (1), 35-43, 2006. 10.1021/ac051695v S0003-2700(05)01695-1. The Rho family of small GTPases, which include Rho, Rac, and CDC42, are well-characterized effectors of oncogenes, growth factor and adhesion-mediated signaling pathways and are not classically thought of as being key effectors for GPCRs. […] Since GPCRs couple to the actin cytoskeletal network and induce very defined morphological changes, it is possible to harness this information as a functional and biologically relevant readout for GPCRs.\nACEA biosciences; has designed electronic cell sensor arrays embedded in the bottom of the well of microtiter plates that are capable of measuring minute changes in cell morphology. […] The main advantages offered by using cell-substrate impedance and cell morphology as a readout are that both exogenously expressed and endogenous receptors can be assayed without the need for engineering the cell with promiscuous G proteins and reporters or labeling the cells with dyes. […]"}, "[2]": {"molecular_target": "T1, LGR4", "test": "cAMP accumulation in CHO-K1 cells transiently transfected with LGR4", "conditions": "1 uM, pre-treatment with Forskolin, FIG. 3C", "protocol": "[The procedure below names another target; the source says it served here with some conditions changed.] (§1) LGR7 (RXFP1) or LGR8 (RXFP2) were transiently transfected into CHO-K1 cells as follows: Cells (12 million) were plated into T75 flasks on the day preceding transfection. Cells were transfected with a GPCR DNA and Gα16 using a lipid technique according to the manufacturer's recommendation. Cells were transfected for 5 hours, then re-plated into 96-well dishes (60,000 cells per well) and grown overnight. Transfected cells were plated into 24 wells of a 96-well plate. Cells were pre-treated with 0.5 mM IBMX (stimulation buffer) for 10 min at 37° C., then stimulated with either a positive control (Relaxin 2) or a candidate peptide (for Gs functional examination), followed by stimulation or a preincubation with 10 μM forskolin (for Gi functional examination). Following a 20 minutes stimulation by incubation with 1 μM of either positive control or the tested peptides, either with or without forskolin, intracellular cAMP was assayed using the Hit Hunter cAMP kit (DiscoveRx Corporation) according to the manufacturer's recommended protocol. Data was converted to nmol of cAMP by running a standard cAMP curve."}, "[3]": {"molecular_target": "T2, LGR5 (Homo sapiens, UniProt O75473)", "T2 construct": "expressed in transfected cells; host or cells: CHO-K1 (transient)", "T2 sequence (O75473 22-907)": "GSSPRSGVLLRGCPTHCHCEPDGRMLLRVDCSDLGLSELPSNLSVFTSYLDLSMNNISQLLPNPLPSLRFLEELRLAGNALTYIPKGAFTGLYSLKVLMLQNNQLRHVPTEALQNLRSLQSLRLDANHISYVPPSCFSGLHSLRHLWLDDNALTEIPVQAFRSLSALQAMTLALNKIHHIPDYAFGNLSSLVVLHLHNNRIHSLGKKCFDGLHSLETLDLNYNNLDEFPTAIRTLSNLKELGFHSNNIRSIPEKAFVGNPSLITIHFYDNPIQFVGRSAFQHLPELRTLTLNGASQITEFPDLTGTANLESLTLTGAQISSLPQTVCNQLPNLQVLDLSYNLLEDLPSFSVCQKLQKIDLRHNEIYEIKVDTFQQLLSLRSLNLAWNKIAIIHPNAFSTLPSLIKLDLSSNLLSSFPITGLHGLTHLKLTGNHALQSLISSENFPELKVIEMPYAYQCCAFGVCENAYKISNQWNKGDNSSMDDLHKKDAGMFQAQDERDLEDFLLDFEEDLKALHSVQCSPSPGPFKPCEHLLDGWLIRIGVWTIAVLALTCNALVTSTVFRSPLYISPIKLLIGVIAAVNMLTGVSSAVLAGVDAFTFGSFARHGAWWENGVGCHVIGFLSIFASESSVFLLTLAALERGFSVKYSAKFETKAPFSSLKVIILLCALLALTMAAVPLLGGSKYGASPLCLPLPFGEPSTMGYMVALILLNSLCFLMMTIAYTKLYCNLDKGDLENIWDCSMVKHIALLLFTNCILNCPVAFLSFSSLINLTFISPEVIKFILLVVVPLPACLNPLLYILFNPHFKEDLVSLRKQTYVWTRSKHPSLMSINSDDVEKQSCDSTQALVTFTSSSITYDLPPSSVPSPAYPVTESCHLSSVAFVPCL", "test": "cAMP accumulation in CHO-K1 cells transiently transfected with LGR5", "conditions": "1 uM, pre-treatment with Forskolin, FIG. 3B", "protocol": "[The procedure below names another target; the source says it served here with some conditions changed.] as §1"}}, "note": "“Also recorded” adds a separate entry of the source. No end group written: not given here.", "data": [{"substance": "H2 Relaxin: H2 Relaxin (ACS), positive control, known ligand of LGR7 (RXFP1) [reference compound]", "values": [{"measurement": "effect on cell impedance (normalized cell index)", "setting": "[1]", "value": "much stronger effect"}]}, {"substance": "GQKGQVGPPGAAVRRAYAAFSV [Peptide P59C13V]", "values": [{"measurement": "Gi effect (decrease in cAMP accumulation)", "setting": "[2]", "value": "slight yet statistically significant Gi effect; also recorded: slight Gi activation"}, {"measurement": "Gi effect (decrease in cAMP accumulation)", "setting": "[3]", "value": "significant Gi effect; also recorded: slight Gi activation"}]}, {"substance": "GQKGQVGPPGAAVRRAYAAFSVGRRAYAAFSV-OH [Peptide P74C13V]", "values": [{"measurement": "effect on cell impedance (normalized cell index)", "setting": "[1]", "value": "moderate effect"}, {"measurement": "Gi effect (decrease in cAMP accumulation)", "setting": "[2]", "value": "slight yet statistically significant Gi effect; also recorded: slight Gi activation"}, {"measurement": "Gi effect (decrease in cAMP accumulation)", "setting": "[3]", "value": "significant Gi effect; also recorded: slight Gi activation"}]}]}
